The record followed here is patent publication US11845793B2, “Anti-ROR1 antibodies” (NBE-THERAPEUTICS AG, dated 2023).

Broadly, the Kd is the concentration at which binding is half-saturated. As a reminder, the koff is the first-order rate constant of dissociation. High values mean a short-lived complex, low ones a long-lived complex. A word on the kon: it is a measure of how fast the partners come together.

B1: hu2A2-D23, humanized from 2A2 (antibody, V domains shown)
VH: QVQLVESGAEVKKPGASVKLSCKASGYTFSDYEMHWVRQAPGQRLEWMGAIDPETGGTAYNQKFKGRVTITVDKSASTAYMELSSLRSEDTAVYYCTGYYDYDSFTYWGPGTTVTVSS
VL: DIVMTQSPSTLSASVGDRVTITCKASQNVDAAVAWYQQKPGTAPKLLIYSASNRYTGVPSRFSGSGSGTEFTLTISSLQSEDLADYFCQQYDIYPYTFGQGTKLEIK
B2: hu2A2b-Q11, humanized from 2A2 (antibody, V domains shown)
VH: EVQLVQSGAEVKKPGASVKVSCKASGYTFSDYEMHWVRQAPGQGLEWLGAIDPETGGTAYNQKFKGRVTMTGDTSISTAYMELSRLTSDDTAVYYCTGYYDYDSFTYWGQGTLVSVSS
VL: DIQMTQSPSSLSTSVGDRVTITCKASQNVDAAVAWYQQKPGKAPKLLIYSASNRYTGVASRFSGSGSGTDFTFTISSLQSEDLADYFCQQYDIYPYTFGQGTKLEIK
B3: hu2A2-D16, humanized from 2A2 (antibody, V domains shown)
VH: EVQLVESGAEVKKPGASVKVSCKASGYTFSDYEMHWVRQAPGQGLEWVGAIDPETGGTAYNQKFKGRVTMTRDTSTSTVYMELSSLRSEDTAVYYCTGYYDYDSFTYWGQGTLVTVSS
VL: DIQMTQSPSSLSASVGDRVTITCKASQNVDAAVAWYQQKPGKAPKLLIYSASNRYTGIPTRFSGSGSGTDFTLTISSLQSEDLADYFCQQYDIYPYTFGQGTKVEIK
B4: chimeric mAb R11 (antibody, V domains shown)
VH: QSVKESEGDLVTPAGNLTLTCTASGSDINDYPISWVRQAPGKGLEWIGFINSGGSTWYASWVKGRFTISRTSTTVDLKMTSLTTDDTATYFCARGYSTYYGDFNIWGPGTLVTISS
VL: ELVMTQTPSSTSGAVGGTVTINCQASQSIDSNLAWFQQKPGQPPTLLIYRASNLASGVPSRFSGSRSGTEYTLTISGVQREDAATYYCLGGVGNVSYRTSFGGGTEVVVK
B5: chimeric mAb 2A2 (antibody, V domains shown)
VH: QVQLQQSGAELVRPGASVTLSCKASGYTFSDYEMHWVIQTPVHGLEWIGAIDPETGGTAYNQKFKGKAILTADKSSSTAYMELRSLTSEDSAVYYCTGYYDYDSFTYWGQGTLVTVSA
VL: DIVMTQSQKIMSTTVGDRVSITCKASQNVDAAVAWYQQKPGQSPKLLIYSASNRYTGVPDRFTGSGSGTDFTLTISNMQSEDLADYFCQQYDIYPYTFGGGTKLEIK
B6: rbQ11, humanized from R11 (antibody, V domains shown)
VH: EVQLVQSGGGLVQPGGSLRLSCAASGSDINDYPISWVRQAPGKGLEWVSFINSGGSTWYASWVKGRFTISRDNAKNSLYLQMNSLRDDDTATYFCARGYSTYYGDFNIWGQGTLVTVSS
VL: DIVMTQSPSSLSASVGDRVTITCQASQSIDSNLAWFQQKPGKAPKSLIYRASNLASGVPSKFSGSGSGTDFTLTISSLQREDAATYYCLGGVGNVSYRTSFGGGTKVEIK
B7: rbD4, humanized from R11 (antibody, V domains shown)
VH: EVQLVESGGGLVQPGRSLRLSCTASGSDINDYPISWFRQAPGKGLEWVGFINSGGSTWYASWVKGRFTISRDDSKSIAYLQMNSLKTDDTATYFCARGYSTYYGDFNIWGQGTTVTVSS
VL: DVVMTQSPSSLSASVGDRVTITCQASQSIDSNLAWFQQKPGKAPNLLIYRASNLASGVPSRFSGSGSGTEFTLTISSLQREDAATYYCLGGVGNVSYRTSFGQGTKVEIK
B8: rbQ12, humanized from R11 (antibody, V domains shown)
VH: EVQLVESGGGLVQPGGSLRLSCAASGSDINDYPISWVRQAPGKGLEWVSFINSGGSTWYASWVKGRFTISRDNAKNSLYLQMNSLRADDTATYFCARGYSTYYGDFNIWGQGTMVTVSS
VL: EIVMTQSPSSLSASVGDRVTITCQASQSIDSNLAWFQQKPGKAPNLLIYRASNLASGVPSRFSGSGSGTEFTLTISSLQREDAATYYCLGGVGNVSYRTSFGQGTKVEIK
B9: huR12_11, humanized from R12 (antibody, V domains shown)
VH: QVQLVESGGALVQPGGSLTLSCKASGFDFSAYYMSWVRQAPGKGLEWIATIYPSSGKTYYAASVQGRFTISADNAKNTVYLQMNSLTAADTATYFCARDSYADDGALFNIWGQGTLVTVSS
VL: QLVLTQSPSVSAALGSSAKITCTLSSAHKTDTIDWYQQLAGQAPRYLMYVQSDGSYEKRSGVPDRFSGSSSGADRYLIISSVQADDEADYYCGADYIGGYVFGGGTQLTVG
B10: huR12_4, humanized from R12 (antibody, V domains shown)
VH: QVQLVESGGELVQPGGSLTLSCKASGFDFSAYYMSWVRQAPGKGLEWIATIYPSSGKTYYAASVQGRFTISADNAKNTVYLQMNSLTAADTATYFCARDSYADDGALFNIWGKGTLVTVSS
VL: QLVLTQSPSVSAALGSSAKITCTLSSAHKTDTIDWYQQLAGQAPRYLMYVQSDGSYEKRSGVPDRFSGSASGADRYLAISRVQADDEADYYCGADYIGGYVFGGGTQLTVLG
B11: Chimeric mAb R12 (antibody, V domains shown)
VH: QEQLVESGGRLVTPGGSLTLSCKASGFDFSAYYMSWVRQAPGKGLEWIATIYPSSGKTYYATWVNGRFTISSDNAQNTVDLQMNSLTAADRATYFCARDSYADDGALFNIWGPGTLVTISS
VL: ELVLTQSPSVSAALGSPAKITCTLSSAHKTDTIDWYQQLQGEAPRYLMQVQSDGSYTKRPGVPDRFSGSSSGADRYLIIPSVQADDEADYYCGADYIGGYVFGGGTQLTVT
B12: huR12_7, humanized from R12 (antibody, V domains shown)
VH: QVQLVESGGELVQPGGSLTLSCKASGFDFSAYYMSWVRQAPGKGLEWIATIYPSSGKTYYAASVQGRFTISADNAKNTVSLQMNSLTAADTATYFCARDSYADDGALFNIWGKGTLVTVSS
VL: QLVLTQSPSVSAALGSSAKITCTLSSAHKTDTIDWYQQLAGQAPRYLMYVQSDGSYEKRSGVPDRFSGSSSGADRYLIISSVQADDEADYYCGADYIGGYVFGGGTQLTVLG
B13: huR12_16, humanized from R12 (antibody, V domains shown)
VH: QVQLVESGGELVTPGGSLTLSCKASGFDFSAYYMSWVRQAPGKGLEWIASIYPSSGKTYYAAAVQGRFTISADNAKNTVYLQMNSLTAADTATYFCARDSYADDGALFNIWGQGTLVTVSS
VL: QLVLTQSPSVSAALGSSAKITCTLSSAHKTDTIDWYQQLAGQAPRYLMYVQSDGSYEKRSGVPDRFSGSSSGADRYLIISSVQADDEADYYCGADYIGGYVFGGGTQLTVG

T1 sequence (Q01973 other isoform, or with tags, fused parts or gaps): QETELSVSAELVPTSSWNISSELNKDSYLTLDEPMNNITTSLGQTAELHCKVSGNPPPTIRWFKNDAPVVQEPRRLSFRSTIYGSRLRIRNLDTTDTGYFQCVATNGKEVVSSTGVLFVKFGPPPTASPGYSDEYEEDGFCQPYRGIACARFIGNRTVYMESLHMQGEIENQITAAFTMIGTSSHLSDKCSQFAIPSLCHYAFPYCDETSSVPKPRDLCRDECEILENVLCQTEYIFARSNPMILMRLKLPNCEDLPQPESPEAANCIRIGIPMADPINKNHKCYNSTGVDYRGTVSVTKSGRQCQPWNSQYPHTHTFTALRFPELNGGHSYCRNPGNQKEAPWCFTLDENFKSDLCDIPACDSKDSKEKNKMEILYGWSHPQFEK

The first assay has as its target T1, StrepII-tagged ROR1-extracellular domain (human, UniProt Q01973). As to the kind of experiment: SPR (Biacore T200), purified mAb captured by anti-human Fc, ROR1-strep as analyte, 1:1 model. On the technique in general: In SPR one partner is held on a chip, and binding of the other changes the refractive index at the surface.
B1 showed a Kd of 8 nM, a koff of 0.0138 s⁻¹ and a kon of 1.72e+06 M⁻¹ s⁻¹.
For B2 the same measures were 9.9 nM, 0.0173 s⁻¹ and 1.75e+06 M⁻¹ s⁻¹.
As to B3, binding was characterised by a dissociation constant (Kd) of 10.9 nM, the koff came out at 0.0189 s⁻¹ and the kon amounted to 1.73e+06 M⁻¹ s⁻¹.
For B4 the same measures were 3.4 nM, 0.00328 s⁻¹ and 957000 M⁻¹ s⁻¹.
B5 gave a Kd of 5.7 nM, a koff of 0.00968 s⁻¹ and a kon of 1.69e+06 M⁻¹ s⁻¹.
Molecule B6 registered a Kd of 6.1 nM, a koff of 0.00498 s⁻¹ and a kon of 821000 M⁻¹ s⁻¹.
In turn, B7 displayed a Kd of 9 nM, an off-rate constant (koff) of 0.0071 s⁻¹ and a kon of 785000 M⁻¹ s⁻¹.
With B8, the affinity, expressed as Kd, was 14.2 nM; the koff worked out at 0.0104 s⁻¹; the kon worked out at 733000 M⁻¹ s⁻¹.

A further assay has as its target T1, StrepII-tagged ROR1-extracellular domain. In words: SPR (Biacore T200), IgG from HEK293T supernatant captured by anti-human Fc, ROR1-strep as analyte, 1:1 model. The procedure: For initial determination of huR12 clone affinities and parental R12 using transient HEK293T supernatants, IgG expression vectors were transiently transfected into 293T cells and IgG titers in supernatants were quantified by ELISA. For SPR, supernatants were diluted to 1 µg/ml IgG with running buffer (HBS-EP+pH 7.4 (10 mM HEPES, 150 mM NaCl, 3 mM EDTA, 0.05% Tween® 20)) and captured for 200s with a flow of 30 µl/min. ROR1-strep was diluted in running buffer using 2-fold serial dilutions ranging from 20 nM to 2.5 nM. Association was measured at a flow of 30 µl/min for 120s, and dissociation was followed for 1000s. Capture levels ranged from 26.9 RU to 54.1 RU.
Regarding B9, the Kd worked out at 0.084 nM, the off-rate constant (koff) is 9.65e-05 s⁻¹ and the kon came to 1.15e+06 M⁻¹ s⁻¹.
B10 returned a Kd of 0.091 nM, a koff of 9.93e-05 s⁻¹ and a kon of 1.09e+06 M⁻¹ s⁻¹.
Molecule B11 gave a Kd of 1.03 nM, a koff of 0.000361 s⁻¹ and an on-rate (kon) of 349000 M⁻¹ s⁻¹.
On to B12, for which the Kd was determined as 0.11 nM, the koff worked out at 0.000116 s⁻¹ and the kon was 1.05e+06 M⁻¹ s⁻¹.
On to B13, for which the dissociation constant (Kd) amounted to 0.092 nM, the koff was determined as 8.79e-05 s⁻¹ and the kon was 960000 M⁻¹ s⁻¹.
